# Experimental data from patent publication US20250130225A1, “SUBSTRATES FOR IMAGING GLUCOCEREBROSIDASE ACTIVITY” (SIMON FRASER UNIVERSITY, priority 2021, published 2025).
# How the values were obtained:
# Assay in all cases: In-vitro kinetic assay with purified recombinant GCase
# Assay type in all cases: biochemical
# Conditions in all cases: other: 30° C., citrate-phosphate buffer 150 mM, pH 5.4, 0.25% taurodeoxycholate, GCase 2.5 nM
# [1] = substrate: COc1cc(/N=N/c2ccc([N+](=O)[O-])cc2)c(OC)cc1/N=N/c1ccc(N(C)CCCC(=O)NCCCO[C@@H]2O[C@H](COCc3cn(CCNC(=O)CCC4=[N+]5C(=Cc6ccc(-c7ccc[nH]7)n6[B-]5(F)F)C=C4)nn3)[C@@H](O)[C@H](O)[C@H]2O)cc1
# Method: (§1) In-vitro kinetic assay for substrate 1. Continuous assays were performed at 30° C. in citrate-phosphate buffer (150 mM; pH 5.4) containing 0.25% taurodeoxycholate. The concentrations of substrate 1 used in assays were 0.39, 0.78, 1.56, 3.13 6.25, 12.5, 25 and 50 μM. Reactions were initiated by the addition of purified recombinant GCase (2.5 nM, R&D Systems) and the reaction was monitored continuously over 1200 seconds to determine the initial rate of change of fluorescence. Standard curves were constructed using BODIPY® Fl-acid using the same buffer conditions. […] Assays were carried out in triplicate.
# as §1, with “Comparative In-vitro” for “In-vitro”, “substrate 3 and 9b.” for “substrate 1.”, “of substrates 3 and 9b” for “of substrate 1”, “were 0.156, 0.313, 0.625, 1.25, 2.5, 5, 10,” for “were 0.39, 0.78, 1.56, 3.13 6.25, 12.5, 25”, “and 20” for “and 50”, “using TAMRA and BODIPY-576” for “using BODIPY® Fl-acid”
# [2] = substrate: COc1cc(/N=N/c2ccc([N+](=O)[O-])cc2)c(OC)cc1/N=N/c1ccc(N(C)CCCC(=O)NCCc2ccc(O[C@@H]3O[C@H](COCCCCn4cc(CNC(=O)[C@H](CCCCN(C)C)NC(=O)c5ccc(-c6c7ccc(=[N+](C)C)cc-7oc7cc(N(C)C)ccc67)c(C(=O)O)c5)nn4)[C@@H](O)[C@H](O)[C@H]3O)cc2)cc1
# Method: as §1
# as §1, with “Comparative In-vitro” for “In-vitro”, “substrate 3 and 9b.” for “substrate 1.”, “of substrates 3 and 9b” for “of substrate 1”, “were 0.156, 0.313, 0.625, 1.25, 2.5, 5, 10,” for “were 0.39, 0.78, 1.56, 3.13 6.25, 12.5, 25”, “and 20” for “and 50”, “using TAMRA and BODIPY-576” for “using BODIPY® Fl-acid”
# [3] = substrate: COc1cc(/N=N/c2ccc(C)cc2[N+](=O)[O-])c(C)cc1/N=N/c1ccc(N(C)CCCC(=O)NCCCO[C@@H]2O[C@H](COCc3cn(CCCNC(=O)[C@H](CCCCN(C)C)NC(=O)CCC4=[N+]5C(=Cc6c(C)cc(C)n6[B-]5(F)F)C=C4)nn3)[C@@H](O)[C@H](O)[C@H]2O)cc1
# Method: as §1
# as §1, with “Comparative In-vitro” for “In-vitro”, “substrate 3 and 9b.” for “substrate 1.”, “of substrates 3 and 9b” for “of substrate 1”, “were 0.156, 0.313, 0.625, 1.25, 2.5, 5, 10,” for “were 0.39, 0.78, 1.56, 3.13 6.25, 12.5, 25”, “and 20” for “and 50”, “using TAMRA and BODIPY-576” for “using BODIPY® Fl-acid”
protein,measurement,setting,value
"purified recombinant GCase (Homo sapiens) (protein, purchased R&D Systems) ARPCIPKSFGYSSVVCVCNATYCDSFDPPTFPALGTFSRYESTRSGRRMELSMGPIQANHTGTGLLLTLQPEQKFQKVKGFGGAMTDAAALNILALSPPAQNLLLKSYFSEEGIGYNIIRVPMASCDFSIRTYTYADTPDDFQLHNFSLPEEDTKLKIPLIHRALQLAQRPVSLLASPWTSPTWLKTNGAVNGKGSLKGQPGDIYHQTWARYFVKFLDAYAEHKLQFWAVTAENEPSAGLLSGYPFQCLGFTPEHQRDFIARDLGPTLANSTHHNVRLLMLDDQRLLLPHWAKVVLTDPEAAKYVHGIAVHWYLDFLAPAKATLGETHRLFPNTMLFASEACVGSKFWEQSVRLGSWDRGMQYSHSIITNLLYHVVGWTDWNLALNPEGGPNWVRNFVDSPIIVDITKDTFYKQPMFYHLGHFSKFIPEGSQRVGLVASQKNDLDAVALMHPDGSAVVVVLNRSSKDVPLTIKDPAVGFLETISPGYSIHTYLWRRQ",kcat/Km,[1],4350 M⁻¹ s⁻¹
same,kcat/Km,[2],22670 M⁻¹ s⁻¹
same,kcat/Km,[3],1300 ± 33 M⁻¹ s⁻¹
